Data: paper PMC7052086, “Functional characterization of NADPH-cytochrome P450 reductase and cinnamic acid 4-hydroxylase encoding genes from Scoparia dulcis L” (Botanical Studies, 2020)

Tested on: NC(=O)C1=CN([C@@H]2O[C@H](COP(=O)(O)OP(=O)(O)OC[C@H]3O[C@@H](n4cnc5c(N)ncnc54)[C@H](OP(=O)(O)O)[C@@H]3O)[C@@H](O)[C@H]2O)C=CC1
Assay: purified protein
Type: biochemical, Scoparia dulcis
Conditions: 100 μM cytochrome c, varied NADPH; 28 °C, pH 7.5 in table footnote (methods: 25 °C, 50 mM Tris pH 7.4)

SdCPR (Scoparia dulcis), sequence (chain, as listed by the source): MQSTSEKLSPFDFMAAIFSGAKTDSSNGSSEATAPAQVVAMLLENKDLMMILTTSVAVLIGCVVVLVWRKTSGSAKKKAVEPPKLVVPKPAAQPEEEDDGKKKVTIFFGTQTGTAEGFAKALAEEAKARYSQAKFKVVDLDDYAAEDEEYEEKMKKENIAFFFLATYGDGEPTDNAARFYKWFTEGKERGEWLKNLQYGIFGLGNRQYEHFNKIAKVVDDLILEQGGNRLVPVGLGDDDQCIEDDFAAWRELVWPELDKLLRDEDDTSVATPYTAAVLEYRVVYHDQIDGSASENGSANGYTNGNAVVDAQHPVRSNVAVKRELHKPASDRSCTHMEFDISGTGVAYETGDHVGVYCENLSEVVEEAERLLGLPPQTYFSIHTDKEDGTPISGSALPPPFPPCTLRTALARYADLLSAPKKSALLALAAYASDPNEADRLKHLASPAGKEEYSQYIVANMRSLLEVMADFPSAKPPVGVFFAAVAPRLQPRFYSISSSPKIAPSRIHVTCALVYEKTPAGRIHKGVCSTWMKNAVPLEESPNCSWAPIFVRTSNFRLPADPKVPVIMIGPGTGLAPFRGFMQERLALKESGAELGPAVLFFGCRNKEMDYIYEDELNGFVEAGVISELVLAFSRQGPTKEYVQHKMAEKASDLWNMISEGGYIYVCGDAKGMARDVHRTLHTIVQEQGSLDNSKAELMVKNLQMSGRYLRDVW

In the case of SdCPR (Scoparia dulcis), the Km is reported as 4.6 ± 0.9 µM, the Vmax is reported as 2.3 µmol/min/mg and the kcat is reported as 2.96 ± 0.13 s⁻¹. For the same substance, the kcat/Km was 665000 M⁻¹ s⁻¹.
